Laboratory results from patent US20050232926A1, “Antibodies specific for cancer associated antigen SM5-1 and uses thereof” (Oncomax Acquisition Corp., priority 2003, published 2005).

B1: humanized anti-SM5-1 antibody (ReSM5-1) (antibody, V domains shown)
VH: QVQLVQSGGGVVQPGRSLRLSCKASGYTFTSYVMHWVRQAPGKGLEWIGYIVPYNDGTKYNEKFKGRFTISSDKSKSTAFLQMDSLRPEDTAVYYCARGSRYDWYLDYWGQGTPVTVSS
VL: NIMMTQSPSSLSASVGDRVTITCKSSQSVLYSSNQKNYLAWYQQTPGKAPKLLIYWASTRESGVPSRFSGSGSGTDYTFTISSLQPEDIATYYCHQYFSSYTFGQGTKLQITR
B2: chSM5-1: mouse-human chimeric antibody with mSM5-1 variable regions (SEQ ID NO:3, 4) and human constant regions (antibody, V domains shown)
VH: EVQLQQSGPELVKPGASVKMSCKASGYTFTSYVMHWVKQKPGQGLDWIGYIVPYNDGTKYNEKFKGKATLTSDKSSSTAYMELSRLTSEDSAVYYCVYGSRYDWYLDVWGAGTTVTVSS
VL: NIMMTQSPSSLAVSAGEKVTMSCKSSQSVLYSSNQKNYLAWYQQKPGQSPKLLIYWASTRESGVPDRFTGSGSGTDFTLTISSVQAEDLAVYYCHQYFSSYTFGGGTKLEIKR
modifications: human constant regions; Mus Musculus

Columns and labels:
QYC cells = test: In vitro proliferation of QYC cells with chimeric and humanized antibody (PMS:MTS, seven days); assay type: cell-based, human; settings: serial antibody dilutions, FIG. 6
Protocol: The cell lines used in viability examination was QYC cells which were obtained from Shanghai International Joint Cancer Institute. The QYC cells was cultured in 25 cm^2 flask with RPMI-1640/DMEM (V:V=1:1, GIBCO) containing 10% FBS (GIBCO).
The above cells were digested with 0.05% trypsin and in 0.02% EDTA, and cell number was counted and adjusted to 6×10^4/ml in RPMI-1640/DMEM culture medium containing 10% FCS.
The assay was performed in 96-well plate. The anti-human SM5-1 humanized and chimeric antibody described above were diluted with RPMI-1640/DMEM containing 10% FCS. The antibody to be tested (20 mg/ml) was diluted to […] in serial dilution, with each dilution no more than 10-fold. The antibody were further diluted 1:2 serially with RPMI-1640/DMEM containing 10% FCS for fourteen serial concentrations in 96-well plate, leaving 100 μl/well. Cells (100 μl) were added into each well containing 200 μl various concentration of antibody or 200 μl of RPMI-1640/DMEM containing 10% FCS as control. In order to prevent edge effect of the plate, wells that were at the edge of the plate were not used for the assay but added 200 μl PBS. The plate was incubated at 37° C. with 7% CO2 for seven days.
Color developing reagent PMS:MTS (1:20) (20 μl) was added into each well of the 96-well plate. The plate without the lid was then incubated for 3 h.
The 96-well plate was read at OD490 nm. […]

[1] = system: human hepatocellular carcinoma cell line QYC; test: Therapeutic effect in QYC-bearing nude mice; assay type: in vivo; settings: 4 mg/kg/week tail vein, after 6 weeks, FIG. 9
Protocol: Chimeric and humanized anti-SM5-1 monoclonal antibodies, and humanized and chimeric anti-CD3 antibodies were tested for their therapeutic effects in QYC bearing nude mice.
Forty female nude mice were inoculated s.c with QYC. After seven weeks, tumor masses reached 0.5 cm in diameter. These mice were randomly divided into 5 groups: 8 mice for PBS group; 8 mice for non-related antibody, chimeric anti-human CD3 mAb, 4 mg/kg; 8 mice for humanized anti-human CD3 mAb, 4 mg/kg; 8 mice for anti-human SM5-1 chimeric mAb, 4 mg/kg; 8 mice for anti-human SM5-1 humanized mAb, 4 mg/kg.
Four mAbs were diluted into final concentration 0.4 mg/ml with PBS. Mice were tail vein injected at 4 mg/kg/week through tail vein, with the control injected equal volume of PBS. According to body weight of nude mice, injection volume was about 250 ul for each nude mouse.
After 6 weeks, size of the tumor mass was measured in each mouse and statistical analyzed. […] These antibodies may function via ADCC and/or CDC.

[2] = system: hepatocelluer carcinoma cell line QYC; test: Antigen binding activity by FCM; parameters: species or system human; settings: compared with chSM5-1
Protocol: The humanized VL and VH were cloned into pMG18-3K expression vector and was expressed transiently in COS cells, yielding humanized version. Humanized antibody in COS cell culture supernatant was quantitated by ELISA and the binding of this version to hepatocelluer carcinoma cell line QYC was determined by FCM. […] The important FR residues that may have influences on binding activity were analyzed and the backmutation assay was carried out. […] The humanized version was designated as ReSM5-1 and its amino acid sequence and nucleotide sequence of both the heavy chain and the light chain shown in Table 3 below.

SM5-1 antigen = test: Competition binding assay
[3] = target: human SM5-1 antigen (human); test: BIAcore (SPR), method of Karlsson et al.; antigen preparation and format not stated

| Kd [3] [nM] | Molecule | in vitro proliferation of QYC cells (QYC cells) | size of the tumor mass [1] | antigen binding activity [2] | avidity (SM5-1 antigen) |
| --- | --- | --- | --- | --- | --- |
| 9.31 | B1 | significantly inhibited in vitro proliferation of QYC cells | effective in controlling the size of the tumor mass | same antigen binding activity as chSM5-1 | equivalent avidity as the murine SM5-1 or chimeric SM5-1 antibody |
|  | B2 | significantly inhibited in vitro proliferation of QYC cells | effective in controlling the size of the tumor mass |  |  |
